From patent US7560106B2, “Rationally designed heparinases derived from heparinase I and II and methods of sequencing therewith” (Massachusetts Institute of Technology, priority 1998, dated 2009)
Substitutions are numbered along the chain they refer to. Names and notes keep the numbering of the source. Read-outs that look alike come from different tables or passages of the source.

T1: heparinase II (Pedobacter heparinus, UniProt C6XZB6)
T1 sequence (C6XZB6 26-772): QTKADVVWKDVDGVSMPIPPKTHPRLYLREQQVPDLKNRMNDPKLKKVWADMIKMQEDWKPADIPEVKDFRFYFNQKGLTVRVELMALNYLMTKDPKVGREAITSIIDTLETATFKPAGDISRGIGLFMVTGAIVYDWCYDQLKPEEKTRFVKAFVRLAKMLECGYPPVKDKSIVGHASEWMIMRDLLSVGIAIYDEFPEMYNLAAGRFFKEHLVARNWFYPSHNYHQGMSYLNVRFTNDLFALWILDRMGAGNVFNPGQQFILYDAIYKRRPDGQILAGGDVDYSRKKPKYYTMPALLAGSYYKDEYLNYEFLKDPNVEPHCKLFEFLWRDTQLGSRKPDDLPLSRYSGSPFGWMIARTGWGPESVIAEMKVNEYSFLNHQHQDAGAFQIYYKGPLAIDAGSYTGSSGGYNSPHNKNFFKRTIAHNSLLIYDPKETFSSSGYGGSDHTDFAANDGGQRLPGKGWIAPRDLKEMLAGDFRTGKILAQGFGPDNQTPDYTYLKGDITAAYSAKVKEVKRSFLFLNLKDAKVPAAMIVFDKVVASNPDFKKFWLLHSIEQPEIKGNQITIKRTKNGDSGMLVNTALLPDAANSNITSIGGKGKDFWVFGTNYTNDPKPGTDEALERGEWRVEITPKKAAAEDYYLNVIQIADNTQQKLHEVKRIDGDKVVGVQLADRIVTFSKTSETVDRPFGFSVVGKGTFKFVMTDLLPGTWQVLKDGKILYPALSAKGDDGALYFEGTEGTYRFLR

B1: N375A: heparinase I CB-2 mutant, asparagine 375 changed to alanine (protein, UniProt Q05819 22-384, looked up, variant N375A)
Heparin lyase I: QQKKSGNIPYRVNVQADSAKQKAIIDNKWVAVGINKPYALQYDDKLRFNGKPSYRFELKAEDNSLEGYAAGETKGRTELSYSYATTNDFKKFPPSVYQNAQKLKTVYHYGKGICEQGSSRSYTFSVYIPSSFPDNATTIFAQWHGAPSRTLVATPEGEIKTLSIEEFLALYDRMIFKKNIAHDKVEKKDKDGKITYVAGKPNGWKVEQGGYPTLAFGFSKGYFYIKANSDRQWLTDKADRNNANPENSEVMKPYSSEYKTSTIAYKMPFAQFPKDCWITFDVAIDWTKYGKEANTILKPGKLDVMMTYTKNKKPQKAHIVNQQEILIGRNDDDGYYFKFGIYRVGNSTVPVTYALSGYSETAR
B2: -L: wild-type recombinant heparinase I expressed without the putative F. heparinum leader sequence (protein, UniProt Q05819 22-384, looked up)
Heparin lyase I: B1 Heparin lyase I with A354N
modifications: recombinant, without leader sequence
B3: E207A/D210A/D212A: heparinase I CB-1 triple mutant (protein, UniProt Q05819 22-384, looked up, variant E207A D210A D212A)
Heparin lyase I: B1 Heparin lyase I with E186A, D189A, D191A, A354N
B4: G378A/Y379A: heparinase I CB-2 double mutant (protein, UniProt Q05819 22-384, looked up, variant G378A Y379A)
Heparin lyase I: B1 Heparin lyase I with A354N, G357A, Y358A

Columns and labels:
[1] = molecular target: T1, heparinase II; assay: 4-VP, NEM, IAA and IAM inactivation of heparinase II; type: biochemical, Flavobacterium heparinum
Protocol: 4-VP, NEM IAA, and AM Inactivation Heparinase II (100 μg/ml) was incubated with varying concentrations of either 4-VP, NEM, IAA or IAM (Lundblad, R. L. (1995) Techniques in Protein Modification. pp. 63-91, CRC Press, Boca Raton). Aqueous stock solutions ([…]) of each reagent was prepared immediately before use. For NEM and 4-VP the concentrations of modifying reagent were varied from 0.2-2 mM. In the case of IAA or IAM, the concentrations of the reagent ranged from 1-10 mM. All reactions were conducted in 50 mM sodium-phosphate buffer, pH 7.0, at room temperature. The time course of inactivation was monitored in each case, time courses for each of the reagents were compared using either heparin or heparan sulfate as the substrate.

[2] = molecular target: T1, heparinase II; assay: DTNB modification and inactivation of heparinase II; type: biochemical, Flavobacterium heparinum
Description: (§1) Heparinase II Activity Assay. Native heparinase II from Flavobacterium heparinum, was purified as described previously (Godavarti, R., and Sasisekharan, R (1996c) Biochem. Biophys. Res. Comm. 229, 770-777). The UV 232 nm assay to quantify native heparinase II enzymatic activity was similar to that reported for heparinase I (Bernstein, H., Yang, V. C., Cooney, C. L., Langer, R. (1988) Meth. Enzym. 137, 515-29). Briefly, the course of the reaction is monitored by measuring the increase in absorbance at 232 nm as a function of time under saturating substrate concentrations. With heparin as the substrate, the reaction was carried out at a concentration of 4 mg/ml in 50 mM sodium phosphate buffer, pH 7.3. With 2 mg/ml heparan sulfate, the reaction was measured in 50 mM sodium phosphate buffer, pH 6.9 (Sasisekharan, R., Moses, M. A., Nugent, M. A., Cooney, C. L., Langer, R. (1994) Proc. Natl. Acad. Sci., USA 91, 1524-1528). The temperature for all enzymatic activity measurements was kept constant at 35° C.
DTNB Modification Studies. (A) Inactivation with DTNB. Heparinase II (100 μg/ml) was incubated with DTNB (0.1-0.5 mM). A DTNB stock solution was made by dissolving DTNB in ethanol and an aliquot was added to the reaction mixture (Lundblad, R. L. (1995) Techniques in Protein Modification. pp. 63-91, CRC Press, Boca Raton).
(B) Quantification of DTNB—modified residues of heparinase II. Quantification of DTNB-modified heparinase II residues was determined by difference spectra. At time zero, 2 mM DTNB was added to the sample cuvette containing heparinase II (825 μg/ml) in sodium phosphate buffer, pH 7.0. The change in absorbance at 410 nm was monitored every. 30 seconds for 10 minutes. To account for the decomposition of DTNB in the reaction mixture, a control was also done by monitoring the change in absorbance at 410 nm with only DTNB (2 mM) in 50 mM sodium phosphate buffer, pH 7.0. Heparinase II activity assays were also performed on the reaction mixture. The number of heparinase II cysteine residues modified was determined using ∈=13,600 M cm^−1 (Lundblad, R. L. (1995) Techniques in Protein Modification. pp. 63-91, CRC Press, Boca Raton). A similar experiment was completed after preincubating the enzyme with heparin for 30 minutes.

[3] = Heparin-POROS affinity chromatography; type: binding; settings: for NaCl: salt concentration at which enzyme elutes from heparin-POROS column, 10 mM Tris, 1 mM EDTA pH 7.0
Protocol: Heparin-POROS chromatography: About 30-40 μg of -L r-heparinase I and the various mutant enzymes were injected into a heparin POROS (4.6 mm×100) column (PerSeptive BioSystems, Framingham, Mass.) connected to BioCAD system (PerSeptive BioSystems). Proteins were eluted using a linear gradient of […] NaCl in 10 min (10 mM Tris, 1 mM EDTA pH 7.0) and monitored at 210 nm. EDTA was added to chelate any calcium ions that may be present in the buffers.

[4] = Heparinase I UV 232 nm activity assay as a function of heparin concentration (Kcat, Km); type: biochemical, porcine; settings: for Kcat / Km: heparin 0 to 4 mg/ml, 5 mM calcium acetate, pH 7.0; for Kcat: 100 mM MOPS
Description: as §1
Heparinase I Activity Assay. The UV 232 nm assay to quantify heparinase I enzymatic activity was similar to that described in Example 1. With heparin as the substrate, the reaction was carried out at a concentration of 4 mg/ml in 100 mM MOPS, 5 mM calcium acetate, pH 7.0. The temperature for all enzymatic activity measurements was kept constant at 30° C. For the inactivation kinetic profiles, activity was measured as outlined above at precise time points.
(§2) Heparinase I Activity Assays: The UV 232 nm assay was used as described in Example 1. When measuring the enzyme activity as a function of heparin concentration, heparin concentrations varied from 0 to 4 mg/ml at a fixed calcium concentration of 5 mM (100 mM MOPS buffer/5 mM calcium acetate, pH 7.0). The data was then fit to an non-linear equation to determine Kcat and Km of heparinases I. Heparinase mutant activity was also investigated as a function of calcium concentration ranging from 0 to 10 mM. […] Activity is expressed as IU-μmol product formed/min using ∈=−3800-M^−1CM^−1.

[5] = Fluorescence competition for calcium with probe rhod-5N; settings: apparent dissociation constant of rhod-5N for calcium with 3 μM enzyme; lower Kd′ means less binding of calcium by heparinase I
Protocol: Fluorescence Competition. To determine the effect of mutations in CB-1 and CB-2 on the ability of heparinase I to bind calcium, mutants with a dramatic drop in activity were tested for their ability to bind calcium. To accomplish this, we examined the ability of heparinase I and mutants to compete for free calcium with the calcium-chelating fluorescence probe rhod-5N. The fluorescence probe rhod-5N was dissolved and diluted in buffer A (10 mM MOPS and 100 mM KCl, pH 6.5). Buffer A and the water used in the study were run through a Chelex Resin column to remove trace amounts of calcium. In the absence of calcium, rhod-5N is not fluorescent, however upon binding calcium rhod-5N is fluorescent with an emission λmax of 576 nm. Before titration, rhod-5N and heparinase I were added to a quartz cuvette such that the final concentration of rhod-5N in the cuvette was 0.3 μM and heparinase I is 3 μM. To this solution was added aliquots of a calcium solution (20 mM) which had been previously equilibrated with 0.3 μM rhod-5N and 3 μM heparinase I. The stock was added such that the calcium concentration in the cuvette was 50, 100, 200, 500, 1000, 5000 μM. After allowing the solution to come to equilibrium, the sample was scanned from 560 nm to 600 nm with the excitation wavelength fixed at […]. The plot of I/Imax versus [Ca^++] was fitted to a non-linear equation to determine the apparent Kd (Kd′) value. Thus, Kd′ values represent the apparent dissociation constants for the fluorescence probe rhod-5N. Control samples without heparinase I were included in the study.

[6] = Heparinase I activity as a function of calcium concentration (K0.5, calcium dependence); type: biochemical
Protocol: as §2

[7] = 2 mM DTNB, 10 minutes, enzyme preincubated with heparin
[8] = 2 mM DTNB, 10 minutes, without heparin preincubation
[9] = calcium concentration at which half of the maximum enzyme activity was observed, calcium 0 to 10 mM, Table 4 first K0.5 column

Kd [5] [µM]	Molecule	inhibition of heparinase II activity, in words [1]	NaCl [3] [mM]	Kcat [4] [s⁻¹]	Km [4] [µM]	K0.5 ([6]; Table 4 second K0.5 column) [µM]	K0.5 [6, 9] [µM]	also measured
–	O=C(O)CI [IAA, iodoacetic acid]	least effective	–	–	–	–	–	–
–	O=C(O)c1cc(SSc2ccc([N+](=O)[O-])c(C(=O)O)c2)ccc1[N+](=O)[O-] [DTNB, 5,5′-dithiobis-(2-nitrobenzoic acid)]	–	–	–	–	–	–	loss of activity [2, 7]: 25%; number of cysteines modified [2, 7]: 1.3 cysteines; loss of initial activity [2, 8]: 80%; number of cysteines modified [2, 8]: 2.4 cysteines; kinact/KI ([2]; DTNB 0-0.5 mM, read-out: second-order rate constant of inactivation (converted)): 10.2 M⁻¹ s⁻¹
–	CCN1C(=O)C=CC1=O [NEM, N-ethylmaleimide]	inhibited heparinase II activity in a dose-dependent fashion	–	–	–	–	–	–
–	C=Cc1ccncc1 [4-VP, 4-vinylpyridine]	inhibited heparinase II activity in a dose-dependent fashion	–	–	–	–	–	–
216	B1	–	490	10	0.88	60	60	elution salt concentration / heparin binding relative to wild-type r-heparinase I, in words [3]: comparable to wild-type r-heparinase I; decrease in Kcat compared to wild-type r-heparinase I [4]: about 10 fold; decrease in Kcat compared to wild-type r-heparinase I ([4]; listed as N375): more than 9 fold
206	B2	–	482 ± 3	92	3.94	270	270	NaCl ([3]; listed as wild-type r-heparinase I): about 482 mM
151	B3	–	540	25	0.73	810	810	–
136	B4	–	489	9	0.31	90	90	elution salt concentration / heparin binding relative to wild-type r-heparinase I, in words [3]: comparable to wild-type r-heparinase I
